Read-outs that look alike come from different tables or passages of the source. One block for each molecule: values may come before it.
Assays:
[1] = molecular target: L-Ac-(FEFE)2-NH2; assay: ITC
[2] = molecular target: the molecule itself; assay: TEM + CD + IR spectroscopy of fibrils
[3] = molecular target: the molecule itself; assay: isotope-edited IR spectroscopy
[4] = molecular target: T1, L-Ac-(FEFE)2-NH2; assay: ITC
T1 peptide: Ac-FEFEFEFE-NH2

- dH [1]: -31.6 kcal/mol
Molecule: D-Ac-(FKFK)2-NH2 (peptide)

Molecule: Ac-FKFEFKFE-NH2 [L-Ac-(FKFE)2-NH2]
- binding result [2]: binds

Molecule: Ac-F(1‑13C)KFEFKF(1‑13C)E-NH2 [L-Ac-(FKFE)2-NH2 doubly 1-13C-labeled at Phe 1/Phe 7]
- binding result [3]: binds

- dH [4]: -40.9 ± 0.6 kcal/mol
Molecule: Ac-FKFKFKFK-NH2 [L-Ac-(FKFK)2-NH2]

Source: PMC7316157 (Journal of the American Chemical Society, 2012)
